According to US20240409617A1 (Dana-Farber, published 2024):

Molecular target: Human FcRn, biotinylated (human, UniProt P55899 24-297; P61769 21-119)

B1: Ab2-7 scFv-Fc (Fc fusion)
chain 1: QVTLKESGPTRVKPTQTLTLTCTFSGFSLSTTGVGVGWIRQPPGKALEWLALIYWNDDKRYSPSLKSRLTITKDTSKNQVVLTMTNMDPVDTATYYCARISGSGYFYPFDIWGQGTTVTVSS
chain 2: NFMLTQPHSVSESPGKTVTISCTRSSGSIASNYVQWYQQRPGSSPTTVIYEDNQRPSGVPDRFSGSIDSSSNSASLTISGLKAEDEADYYCQSYDSSSLWVFGGGTKLTVL
- Kd: 11.7 nM
- koff: 0.00198 s⁻¹
- kon: 169000 M⁻¹ s⁻¹
